Results from US9382311.

Molecular target: T1, YU2 gp120 (HIV-1, UniProt P35961 32-498)
T1 construct: domain: gp120
Experiment: ELISA (FIG. 3)

B1: VRC-PG-04 (antibody, V domains shown)
VH: QVQLVQSGSGVKKPGASVRVSCWTSEDIFERTELIHWVRQAPGQGLEWIGWVKTVTGAVNFGSPDFRQRVSLTRDRDLFTAHMDIRGLTQGDTATYFCARQKFYTGGQGWYFDLWGRGTLIVVSS
VL: EIVLTQSPGTLSLSPGETASLSCTAASYGHMTWYQKKPGQPPKLLIFATSKRASGIPDRFSGSQFGKQYTLTITRMEPEDFARYYCQQLEFFGQGTRLEIR
notes: also called PGV04
  binding result: binds
